Data: US20240301049A1 (Ablynx, published 2024)
Where “and” joins values, the source holds several entries; their conditions need not be identical. Identical values can stand only once.

How the values were obtained:
human FASL = target: T1, human FASL (human, UniProt P48023 134-281, limits assumed); experiment: SPR (ProteOn XPR36), target immobilized
T1 construct: also called hFASL
T1 sequence (looked up): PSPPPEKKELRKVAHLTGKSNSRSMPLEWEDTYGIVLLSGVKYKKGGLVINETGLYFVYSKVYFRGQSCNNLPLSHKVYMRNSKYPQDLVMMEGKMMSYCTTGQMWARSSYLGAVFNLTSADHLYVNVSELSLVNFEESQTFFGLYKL

human oncostatin M = target: T2, human oncostatin M (human, UniProt P13725 26-221, limits assumed); experiment: SPR (ProteOn XPR36), target immobilized
T2 construct: also called OSM
T2 sequence (looked up): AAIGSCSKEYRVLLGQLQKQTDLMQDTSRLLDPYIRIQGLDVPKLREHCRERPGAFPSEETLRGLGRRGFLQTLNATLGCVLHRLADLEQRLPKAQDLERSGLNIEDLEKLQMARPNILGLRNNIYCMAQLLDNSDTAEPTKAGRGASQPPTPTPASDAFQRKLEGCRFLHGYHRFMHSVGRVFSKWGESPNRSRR

human CD30L = target: T3, human CD30L (human, UniProt P32971 63-234, limits assumed); experiment: SPR (ProteOn XPR36), target immobilized
T3 sequence (looked up): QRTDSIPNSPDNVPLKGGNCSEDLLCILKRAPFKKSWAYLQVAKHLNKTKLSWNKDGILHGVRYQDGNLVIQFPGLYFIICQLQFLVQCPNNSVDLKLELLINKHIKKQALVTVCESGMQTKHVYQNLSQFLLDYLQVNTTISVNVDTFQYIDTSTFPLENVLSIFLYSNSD

human LIGHT = target: T4, human LIGHT (human, UniProt O43557 74-240, limits assumed); experiment: SPR (ProteOn XPR36), target immobilized
T4 construct: also called hLIGHT
T4 sequence (O43557 74-240 limits assumed): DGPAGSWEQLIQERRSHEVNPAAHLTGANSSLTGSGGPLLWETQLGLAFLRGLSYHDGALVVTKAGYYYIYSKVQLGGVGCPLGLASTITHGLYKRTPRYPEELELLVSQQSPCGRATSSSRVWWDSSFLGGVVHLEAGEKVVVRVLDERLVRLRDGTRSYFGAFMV

human IL11 = target: T5, human IL11 (human, UniProt P20809 22-199); experiment: SPR (ProteOn XPR36), target immobilized
T5 sequence (looked up): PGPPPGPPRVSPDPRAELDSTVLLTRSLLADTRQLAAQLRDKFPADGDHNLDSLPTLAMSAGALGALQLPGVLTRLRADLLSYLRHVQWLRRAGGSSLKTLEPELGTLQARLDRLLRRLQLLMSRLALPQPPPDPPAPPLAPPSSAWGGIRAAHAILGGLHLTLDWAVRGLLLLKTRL

human TL-1A = target: T6, human TL-1A (human, UniProt O95150 72-251); experiment: SPR (ProteOn XPR36), target immobilized
T6 construct: also called hTL-1A
T6 sequence (looked up): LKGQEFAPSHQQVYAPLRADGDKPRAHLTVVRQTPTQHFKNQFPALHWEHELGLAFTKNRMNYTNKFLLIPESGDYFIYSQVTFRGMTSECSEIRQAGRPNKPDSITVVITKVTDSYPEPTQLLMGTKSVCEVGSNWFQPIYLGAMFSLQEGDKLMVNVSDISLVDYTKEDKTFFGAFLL

human RANKL = target: T7, human RANKL (human, UniProt O14788 140-317, limits assumed); experiment: SPR (ProteOn XPR36), target immobilized
T7 construct: also called hRANKL
T7 sequence (looked up): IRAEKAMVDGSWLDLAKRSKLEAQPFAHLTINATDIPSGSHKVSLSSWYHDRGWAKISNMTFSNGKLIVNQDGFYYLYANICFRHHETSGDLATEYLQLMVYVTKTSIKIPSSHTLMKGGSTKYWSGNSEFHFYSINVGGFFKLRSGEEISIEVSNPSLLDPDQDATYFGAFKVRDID

human CNTF = target: T8, human CNTF (human, UniProt P26441 2-200); experiment: SPR (ProteOn XPR36), target immobilized
T8 construct: also called ciliary neurotrophic factor
T8 sequence (looked up): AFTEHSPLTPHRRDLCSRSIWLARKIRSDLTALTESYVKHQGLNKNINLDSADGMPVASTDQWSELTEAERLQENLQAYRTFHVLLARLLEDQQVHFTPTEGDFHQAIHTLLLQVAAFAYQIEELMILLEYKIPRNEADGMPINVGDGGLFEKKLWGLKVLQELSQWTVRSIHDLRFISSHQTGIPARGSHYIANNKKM

human TRAIL = human TRAIL (human, UniProt P50591 114-281, limits assumed); experiment: SPR (ProteOn XPR36), target immobilized
Chain of human TRAIL (P50591 114-281 limits assumed): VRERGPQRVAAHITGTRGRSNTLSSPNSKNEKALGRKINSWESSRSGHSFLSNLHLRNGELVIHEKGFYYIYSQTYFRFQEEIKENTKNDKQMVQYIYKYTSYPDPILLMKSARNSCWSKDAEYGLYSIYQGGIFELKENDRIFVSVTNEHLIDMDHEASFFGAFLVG

human CD40L = target: T9, human CD40L (human, UniProt P29965 113-261, limits assumed); experiment: SPR (ProteOn XPR36), target immobilized
T9 sequence (looked up): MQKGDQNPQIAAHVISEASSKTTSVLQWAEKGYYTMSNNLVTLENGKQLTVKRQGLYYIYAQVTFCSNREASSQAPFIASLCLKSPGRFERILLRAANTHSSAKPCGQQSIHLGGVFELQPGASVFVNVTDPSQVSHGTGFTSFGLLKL

human TNFβ = target: T10, human TNFβ (human, UniProt P01374 35-205); experiment: SPR (ProteOn XPR36), target immobilized
T10 construct: the result sentence prints TNF; also called hTNFβ
T10 sequence (looked up): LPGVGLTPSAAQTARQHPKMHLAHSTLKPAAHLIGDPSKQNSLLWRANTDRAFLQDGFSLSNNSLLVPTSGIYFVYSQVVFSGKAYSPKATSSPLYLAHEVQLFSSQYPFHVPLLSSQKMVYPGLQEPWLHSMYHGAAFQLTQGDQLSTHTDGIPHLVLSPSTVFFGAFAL

cyno TNF-α = cyno TNF-α (cynomolgus monkey, UniProt P79337 77-233); experiment: cell-based or functional assay
Chain of cyno TNF-α (P79337 77-233 limits assumed): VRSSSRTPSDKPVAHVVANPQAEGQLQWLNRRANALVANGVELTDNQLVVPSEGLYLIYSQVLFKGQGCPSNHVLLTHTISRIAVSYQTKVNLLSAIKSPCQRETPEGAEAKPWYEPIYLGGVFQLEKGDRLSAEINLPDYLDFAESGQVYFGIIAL

human IL-6 = human IL-6 (human, UniProt P05231 30-212); experiment: cell-based or functional assay
human TNF-α = human TNF-α (human, UniProt P01375 77-233); experiment: cell-based or functional assay
Chain of human TNF-α (P01375 77-233 limits assumed): as the sequence (P79337 77-233 limits assumed) above, with V37L, T44R, N72T, L138R counted along it

[1] = target: T11, human membrane TNFα expressed on HEK293H cells (human, UniProt P01375 1-233); experiment: flow cytometry, HEK293H cells expressing human membrane TNFα, with 30 µM HSA, 24 h
T11 construct: whole, on cells; also called membrane expressed TNFα
T11 sequence (P01375 whole entry): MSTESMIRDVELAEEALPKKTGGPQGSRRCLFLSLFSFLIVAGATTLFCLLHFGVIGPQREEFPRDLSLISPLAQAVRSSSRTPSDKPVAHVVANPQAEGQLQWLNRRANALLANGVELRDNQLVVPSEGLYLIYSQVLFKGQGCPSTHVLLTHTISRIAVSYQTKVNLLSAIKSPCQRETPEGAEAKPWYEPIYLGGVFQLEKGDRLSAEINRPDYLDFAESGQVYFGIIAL
Experimental: Briefly, cells were fixed with 4% paraformaldehyde and 0.1% glutaraldehyde in PBS (to increase detection of membrane bound TNFα). […] Cells were washed 3 times and subsequently incubated with an anti-VHH mAb (ABH00119) for 30 min at 4° C., washed again, and incubated for 30 min at 4° C. with a goat anti-mouse or anti-human PE labeled antibody. Samples were washed and resuspended in FACS Buffer (D-PBS with 10% FBS and 0.05% sodium azide supplemented with 5 nM TOPRO3). Cell suspensions were then analyzed on an iQuescreener. EC50 values were calculated using GraphPad Prism.

B1: F027201062 (bispecific antibody)
chain: DVQLVESGGGVVQPGGSLRLSCAASGRTFSNYAMAWFRQAPGKEREFVAVISYAGGRTYYADSVKGRFTISRDNAKNTVYLQMNSLRPEDTALYYCAAVDSPLIATHPRGYDYWGQGTLVTVSSGGGGSGGGSEVQLVESGGGVVQPGGSLRLSCAASGFTFRSFGMSWVRQAPGKGPEWVSSISGSGSDTLYADSVKGRFTISRDNSKNTLYLQMNSLRPEDTALYYCTIGGSLSRSSQGTLVTVSSGGGGSGGGSEVQLVESGGGVVQPGGSLRLSCAASGFTLAYYAIGWFRQAPGKEREGVSCISGSVGTTYYADSVKGRFTISRDNAKNTVYLQMNSLRPEDTALYYCVRSSWFDCGVQGRDLGNEYDYRGQGTLVTVSSGGGGSGGGSEVQLVESGGGVVQPGGSLRLSCTASGFTFSTADMGWFRQAPGKGREFVARISGIDGTTYYDEPVKGRFTISRDNSKNTVYLQMNSLRPEDTALYYCRSPRYADQWSAYDYWGQGTLVKVSSA
notes: anti-IL-6 (17C04, 6B12), anti-HSA (ALB23002), anti-TNF-α (6C11), C-terminal alanine; produced in Pichia pastoris; also called ISVD construct F027201062; Nanobody F027201062
Human FASL
  binding result: no binding (tested: 300 nM)
Human oncostatin M
  binding result: no binding (tested: 300 nM)
Human CD30L
  binding result: no binding (tested: 300 nM)
Human LIGHT
  binding result: no binding (tested: 300 nM)
Human IL11
  binding result: no binding (tested: 300 nM)
Human TL-1A
  binding result: no binding (tested: 300 nM)
Human RANKL
  binding result: no binding (tested: 300 nM)
Human CNTF
  binding result: no binding (tested: 300 nM)
Human TRAIL
  binding result: no binding (tested: 300 nM)
Human CD40L
  binding result: no binding (tested: 300 nM)
Human TNFβ
  binding result: no binding (tested: 300 nM)
Cyno TNF-α
  cyno TNF-α NFkb assay (IC50, pM): 193 pM
Human IL-6
  Ratio IC50 reference anti-IL-6 mAb1/Nb: 2.4 ratio
  hIL-6 TF1 proliferation assay (IC50, pM): 134 pM
Human TNF-α
  Ratio IC50 reference anti-TNF-α mAb/Nb: 0.67 ratio
  hTNF-α Nfkb assay (IC50, pM): 98 pM
[1]
  EC50: 0.31 nM and 0.29 nM and 0.36 nM
